Laboratory results reported in the supplement of paper PMC10065799, “High-throughput profiling of sequence recognition by tyrosine kinases and SH2 domains using bacterial peptide display” (eLife, 2023).

What follows are sequences tested on AncSZ (assay: phosphorylation enrichment, bacterial display (enrichment ratio); higher = better substrate or ligand; peptides without Tyr show the background).
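Further: 11-residue human phosphosite peptides and single-mutation variants displayed on the E. coli surface, counted by deep sequencing, each peptide's frequency after selection divided by its frequency in the unselected input library; frequency after pTyr selection over input frequency; kinase dosed for 20-30% of maximal phosphorylation in three min.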

Row | Sequence | phosphorylation enrichment
1 | LEVETYRRLLD [KRT12_Y429_I426V] | 0.676
2 | KGKLIYLLRDS [NXPE1_Y350_G353R] | 0.719
3 | AAVLNYKAGRD [GRIN2A_Y737] | 0.461
4 | QVMDGYPIPIG [MMP14_Y353_M355I] | 0.686
5 | CSHKFYGKQCC [ADAMTS16_Y1211] | 0.607
6 | MHDSNYVSKGS [PDGFRA_Y849] | 0.648
7 | KDLPNYNWKSF [KISS1_Y112_N115K] | 0.655
8 | RREGVYRNNID [PTEN_Y46_L42R] | 0.55
9 | FLNSIYQSRDE [ROS1_Y2227_K2228Q] | 0.743
10 | FSAGTYPRMEE [SYCN_Y108_L111M] | 0.863
11 | PSSNLYFRWLT [CNGA3_Y168_YF] | 1.7
12 | IDAVCYFRMEN [NPHS2_Y194_I192V_YF] | 1.79
13 | HNVAIYEGYAL [ACTC1_Y168_P166A] | 2.26
14 | DEDFLCREELA [POR_Y575_Y575C_YF] | 1.25
15 | YEEDSYSHVMA [FDPS_Y388_I391V] | 1.87
16 | ASTHVYQIMNH [ITK_Y588] | 0.703
17 | EDGFAYVPLKD [PRIM2_Y208] | 1.25

Row | Sequence | phosphorylation enrichment
18 | DDSSAYRSVDE [BCKDHA_Y345] | 1.16
19 | ARVDTYCRHNF [HLA-DRB1_Y107_A103R_YF] | 0.7
20 | LTFHMYADPNI [SOS1_Y618_F623I_YF] | 2.46
21 | FGMQLYQKFMH [GRB14_Y347_N349K_YF] | 0.863
22 | ADYYDYGRGLS [KHDRBS3_Y304_H306R] | 3.83
23 | EMFNPCYGLFE [NEDD4L_Y679_Y679C] | 1.04
24 | QGFDTYFGYLL [ARSB_Y165_R160Q] | 2.72
25 | SENYTYIWWLN [PSG4_Y271_K267E] | 1.27
26 | NRLNDYIFSFD [RARS1_Y516] | 1.09
27 | KPLMPYMRYSR [SMARCE1_Y73] | 0.787
28 | RPYRPYIIRGM [LRP5_Y1531] | 0.949
29 | SSWPGYVRPLP [HSPB1_Y54] | 0.774
30 | FRARAYSFRGP [CHGA_Y381_G382S] | 0.697
31 | PQGVGYPPQQQ [EP300_Y2219] | 0.962
32 | RGYRQDAYDGK [HLA-A_Y140] | 0.773
33 | SVTYTYSPALN [TP53_Y126_C124Y] | 1.5

What follows are sequences tested against EPHB1 (UniProt P54762) in the same assay as above.
Chain of EPHB1 (P54762 whole entry, looked up): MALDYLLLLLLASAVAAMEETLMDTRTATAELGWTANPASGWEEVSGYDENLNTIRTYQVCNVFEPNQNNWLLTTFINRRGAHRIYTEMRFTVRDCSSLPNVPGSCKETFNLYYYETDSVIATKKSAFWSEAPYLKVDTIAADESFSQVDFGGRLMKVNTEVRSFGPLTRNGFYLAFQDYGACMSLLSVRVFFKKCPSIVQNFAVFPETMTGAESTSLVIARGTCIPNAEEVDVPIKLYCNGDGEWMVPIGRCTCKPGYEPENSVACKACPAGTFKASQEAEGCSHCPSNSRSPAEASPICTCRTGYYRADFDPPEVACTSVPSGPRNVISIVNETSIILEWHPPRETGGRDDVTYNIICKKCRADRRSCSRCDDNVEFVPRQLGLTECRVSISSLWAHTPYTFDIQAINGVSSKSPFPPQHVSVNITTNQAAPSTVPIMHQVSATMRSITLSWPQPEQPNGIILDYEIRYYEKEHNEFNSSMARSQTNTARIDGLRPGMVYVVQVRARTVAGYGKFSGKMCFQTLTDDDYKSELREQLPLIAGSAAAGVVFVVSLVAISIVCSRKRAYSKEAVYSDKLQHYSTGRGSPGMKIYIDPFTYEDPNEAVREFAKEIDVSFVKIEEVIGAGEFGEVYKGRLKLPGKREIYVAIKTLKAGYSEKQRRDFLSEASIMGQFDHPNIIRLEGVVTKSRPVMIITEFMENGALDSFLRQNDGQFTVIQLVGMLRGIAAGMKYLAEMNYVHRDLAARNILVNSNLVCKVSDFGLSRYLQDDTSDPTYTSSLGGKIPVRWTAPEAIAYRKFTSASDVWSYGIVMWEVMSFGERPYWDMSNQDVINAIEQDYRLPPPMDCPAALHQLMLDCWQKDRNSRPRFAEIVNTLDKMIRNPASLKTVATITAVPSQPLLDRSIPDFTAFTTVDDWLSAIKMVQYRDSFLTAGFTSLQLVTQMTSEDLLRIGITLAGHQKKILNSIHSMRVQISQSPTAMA

Row | Sequence | phosphorylation enrichment
34 | LEVETYRRLLD [KRT12_Y429_I426V] | 0.491
35 | KGKLIYLLRDS [NXPE1_Y350_G353R] | 0.455
36 | AAVLNYKAGRD [GRIN2A_Y737] | 0.352
37 | QVMDGYPIPIG [MMP14_Y353_M355I] | 0.596
38 | CSHKFYGKQCC [ADAMTS16_Y1211] | 0.498
39 | MHDSNYVSKGS [PDGFRA_Y849] | 0.388
40 | KDLPNYNWKSF [KISS1_Y112_N115K] | 0.532
41 | RREGVYRNNID [PTEN_Y46_L42R] | 0.324
42 | FLNSIYQSRDE [ROS1_Y2227_K2228Q] | 0.533
43 | FSAGTYPRMEE [SYCN_Y108_L111M] | 0.453
44 | PSSNLYFRWLT [CNGA3_Y168_YF] | 0.688
45 | IDAVCYFRMEN [NPHS2_Y194_I192V_YF] | 0.788
46 | HNVAIYEGYAL [ACTC1_Y168_P166A] | 15.8
47 | DEDFLCREELA [POR_Y575_Y575C_YF] | 0.701
48 | YEEDSYSHVMA [FDPS_Y388_I391V] | 0.59
49 | ASTHVYQIMNH [ITK_Y588] | 0.991
50 | EDGFAYVPLKD [PRIM2_Y208] | 0.567

Row | Sequence | phosphorylation enrichment
51 | DDSSAYRSVDE [BCKDHA_Y345] | 0.671
52 | ARVDTYCRHNF [HLA-DRB1_Y107_A103R_YF] | 0.41
53 | LTFHMYADPNI [SOS1_Y618_F623I_YF] | 1.77
54 | FGMQLYQKFMH [GRB14_Y347_N349K_YF] | 1.39
55 | ADYYDYGRGLS [KHDRBS3_Y304_H306R] | 15.9
56 | EMFNPCYGLFE [NEDD4L_Y679_Y679C] | 0.489
57 | QGFDTYFGYLL [ARSB_Y165_R160Q] | 5.42
58 | SENYTYIWWLN [PSG4_Y271_K267E] | 1.53
59 | NRLNDYIFSFD [RARS1_Y516] | 0.538
60 | KPLMPYMRYSR [SMARCE1_Y73] | 0.353
61 | RPYRPYIIRGM [LRP5_Y1531] | 0.531
62 | SSWPGYVRPLP [HSPB1_Y54] | 0.48
63 | FRARAYSFRGP [CHGA_Y381_G382S] | 0.48
64 | PQGVGYPPQQQ [EP300_Y2219] | 0.44
65 | RGYRQDAYDGK [HLA-A_Y140] | 0.519
66 | SVTYTYSPALN [TP53_Y126_C124Y] | 0.95
